Experimental findings from the DeepSol protein solubility set are described below.

This data set is described as follows: soluble on expression in E. coli; label from the status in PepcDB or PDB records.
For the sequence “MSLSHMGIFKFANGTIRVKDLEKSIEFYRDVIGMHELAREKGVVYFGCGADETFDIAIKEGGTGVEQFALQVADEEDIQYYEKKLTNLGISTQRMSNPEPGKKVALRFAAPSGHQLELALMEDRPHYLHPVAGHKGSRGIGILDADHITLHTKDVKGLAEFLQEALDFRVADVFEPAPGVWGAAWTHASDYHHDVALIGTSEDTTLHHFAFLVSGFEDMKRACDLLAQAGYKIETGPGRHGVGGNLFTYFLDPSGNRIELSAEMPRADRSVPHKVWPDFPPAFSTWGALPPESFAKGEGHHHHHH”, the “soluble on expression in E. coli” value is recorded as “soluble”.

On to “MKARIMYEAYFNLTTKPFELLPNPDFIFPSKSHKRALMYLDYGISERAGFILLTGDIGTGKTTLIRNMIQLKDERTIISRIFNTRVEPEQLLAMICHDFGIPAEGRGKVALLNELNDYLIEQFALGNRPVLIIDEAQNLSADLLEDIRLLSNLETSDTKLLQIVLVGQPELREVLALPQLLQLRQRISINCHISPLSREETEGYIFHRLDRAGNRNAVAFSSDALDIVYRYSRGIPRLVNIICDFILLSAFAEQTTEIPGEMVRDIIGDLDFENHYWGGAEVAASERAPEAARLAPGRSDEATELVATLRAVIDRLESLEGDFARMSRGVLDEMSEKVASLENAFRFHVDETDSHISEIRRRIEKVQNLEVGTTGECQPQDSPKGLLKRMFGALEHHHHHH”, for which the “soluble on expression in E. coli” value is “not soluble”.

On to “MIPMNVTFEHDFQTMRESFFENAQEAFAILDKDLNFIDINKSFTESLKTGRDKLIGKNIIEFNSSIKNTERFRLYQKVLQTGESIILDDIRLHPNLGSYTIRVSCFKVGEGIGLAILNITDLRDAIDDLETFIYKCSHDMRTPVSNIYGLIQLALEDTKDPHTVEFLNMIKHQTDRLDHIIHQLANTSRLMHDNKIIYLVDLKTVVSDVIDSFSKIPDFEAIKFTVTSSSKEKFFSDKSLLICILENIIDNAIKYRNHDIQSLIDINMSDEKSGVRITIKDNGIGIDDDIQKNVFKMFYRGTNKSSGSGLGLYTVKHFIKKLKGEISLTSEKNTGTTFSFYIPNVNTDK”, for which the “soluble on expression in E. coli” value is listed as “not soluble”.

In the case of “MAHHHHHHMNFVFIYIVLISFFNKSRCDNELSVKGSLTVANLKISSKNNQENGILFVNEESEYKIGLNERSELIISKKKKPLVTIDEHENLNFFNLDLSVKILNIQGILKIMNVNQFQMFVHEDFSNSSNTKGWIGDQFFNYTSSCGGINLLGGYGKLSKGEIYKTFENIPSHSQIRIKCNFHFIDNWDNQTAYMKITTDEKEEKYYVWTDTHSQINKQNSINICGNTTGESKFFSIIDIIIPHNSNKLIIYFGTNIQKDEPNLISWGISNFQIYLI”, the “soluble on expression in E. coli” value is reported as “not soluble”.

In the case of “AKTEQQIADIVNRTITPLMQEQAIPGMAVAIIYEGKPYYFTWGKADIANNHPVTQQTLFELGSVSKTFNGVLGGDAIARGEIKLSDPVTKYWPELTGKQWRGISLLHLATYTAGGLPLQIPDDITDKAALLRFYQNWQPQWTPGAKRLYANSSIGLFGALAVKPSGMSYEEAMTRRVLQPLKLAHTWITVPQSEQKNYAWGYREGKPVHVSPGQLDAEAYGVKSSVIDMARWVQANMDASHVQEKTLQQGIELAQSRYWRIGDMYQGLGWEMLNWPLKADSIINGSDSKVALAALPAVEVNPPVPAVKASWVHKTGSTGGFGSYVAFVPEKNLGIVMLANKSYPNPVRVEAAWRILEKLQ”, the “soluble on expression in E. coli” value is on record as “soluble”.

“MGQKKYVELSKDIFIFSYLCGGINFTDIANLTQENIVNGRLHYIRQKTGKLIKIGIPQEAMQIIKKYTDESNGYLFPILNVKVHKTALQKQNRIHKIRGKVNDILKTLGKRLGIEANITTYVARHSFASVLKKSGVNIALISEALGHSDLATTQIYLDSFDNEQVDEAMKNLLEHHHHHH”: the “soluble on expression in E. coli” value is recorded as “soluble”.

For the sequence “MGSDKIHHHHHHMLTRMMQATAAIQQSVDGYFAVPTSLLVPDARGGFSIYLKQERGFVLYAKEDEAFTMRHRMQLRAHGVTQVFVPAPQHPSFISHRERHFGRVLSDDSLPLPERARLFYETSTEIVKEVFEKKLPRTLKRETFDRILALVSEGISFLTLENSLKTVASLVAHDYHTYSHSLHVFVYSQALLQSYGFDEDSLVQFGLGAMLHDIGKTFLDAAILTKPAALTPDEREEVNRHPVFGVGACARMPLSQDAINCILFHHEKLDGSGYPCGLRGDEIPLPVRAITIADIYDALTSNRAYAPARNAFQVLRIMSSEMRDQLDLDMFRRFVLMLSGANVL”, the “soluble on expression in E. coli” value is given as “not soluble”.

With “MSLNYKNYTVMLVDDEQPILNSLKRLIKRLGCNIITFTSPLDALEALKGTSVQLVISDMRMPEMGGEVFLEQVAKSYPDIERVVISGYADAQATIDAVNRGKISRFLLKPWEDEDVFKVVEKGLQLAFLREENLRLQEETEAKNKQEGHHHHHH”, the “soluble on expression in E. coli” value is listed as “soluble”.
